The source of these data is patent US20260234247A1 (published 2026).

Substitutions are numbered along the chain they refer to.

The term EC50 denotes the concentration that produces a half-maximal response. Lower therefore signals higher potency in that assay. One may read the Kd as a measure of binding affinity in units of concentration. Lower therefore signals tighter binding. For orientation: koff means the first-order rate constant of dissociation. The low end stands for slow dissociation, the high end for fast dissociation. What is called kon is a measure of how fast the partners come together.

B1: LK-RB2-35 (antibody, human IgG4 S228P, kappa, V domains shown)
VH: EVQLQQSGPELVKPGASVKISCKASGYTFTDYNMHWVKQSHGKSLEWIGSIYPYNGGSDYNQKFKSKATLTVDNSSSTAYMELRSLTSEDSAVYYCASELTGLYAMDYWGQGTSVTVSS
VL: DIVMTQSPATLSVTPGDRVSLSCRASQSISDYLHWYQQKSHESPRLLIKYASQSISGIPSRFSGSGSGSDFTLSINSVEPEDVGVYYCQTGHSFPYTFGGGTKLEIKR
B2: LK-RB2-19 (antibody, human IgG4 S228P, kappa, V domains shown)
VH: QVQLQQPGAELVKPGASVKLSCKASGYTFTSYWMHWVKQRPGQGLEWIGMIHPNSGGTNYNEKFKSKATLTVDKSSSTAYMQFSSLTSEDSAVYYCARCTVVALYYALDYWGQGTSVTVSS
VL: QIVLSQSPAILSASPGEKVTMTCRATSRVSYIHWFQQKPGSSPKPWIYVTSNLASGVPARFSGSGSGTSYSLTISKLEAEDVATYYCQQWSTNPLTFGAGTKLELKR
B3: LK-RB2-4 (antibody, human IgG4 S228P, kappa, V domains shown)
VH: EVQLVESGGDLVKPGGSLKLSCAASGFTFSNYGMSWVRQTPDKRLEWVATISSGGSYTFYPDSVKGRFTISRDNAKNTLYLQMSSLKSEDTALYYCARDYYYGKTIEGYFDYWGQGTTLTVSS
VL: DIQMTQTTSSLSASLGDRVTISCRANQDISNYLNWYQQKPDGTVKLLIYYTSRLHSGVPSRFSGSGSGTDYSLTISDLEQEDIATYFCQQGNTLPWTFGGGTKLEIKR
B4: LK-RB2-36 (antibody, human IgG4 S228P, kappa, V domains shown)
VH: QVQLQQSGAELVRPGASVKMSCKASGYTFTNYWIGWAKQRPGHGLEWIGDIYPGGTYTGYNEKFKGKATLTADKSSSTAYMQFSSLTSEDSAIYYCARRMDYDGYAMDYWGQGTSVTVSS
VL: DIVLTQSPASLSVTPGDSVSLSCRASQSISNNLHWYQQKSHESPRLLIKYASQSISGIPSRFSGSGSGTDFTLSINSVETEDFGMYFCQQSNSWPLTFGAGTKLELKR
B5: LK-RB2-22 (antibody, human IgG4 S228P, kappa, V domains shown)
VH: QIQLVQSGPELKKTGETVKISCKASGYTFTTYGMSWVKQAPGKGLKWMGWINIYSGVPTYADDFKGRFAFSLETSASTAYLQINNLKNEDTATYFCARRADYDGYYFDYWGQGTTLTVSS
VL: NIVMTQTPKFLLVSAGDRVTITCRASQSVTNDVAWYQQRPGQSLKLLIYYASNRYTGVPDRFTGSGYGTDFTFTISTVQAEDLAVYFCQQGYSSPFTFGSGTKLEIKR
B6: LK-RB2-37 (antibody, human IgG4 S228P, kappa, V domains shown)
VH: B5 VH with L11V, T14P, I53T, A76V, A92S, A100R, Y106A, F107M, T115S, L116V
VL: DIVMSQSPSSLAVSVGEKVTMSCKSSQSLLYSGNQKNYLAWYQQKPGQSPKLLIYWASARESGVPDRFTGSGSGTDFTLTISSVKAEDLAVYYCQQYYTYPFTFGSGTKLEIKR
B7: LK-RB2-23 (antibody, human IgG4 S228P, kappa, V domains shown)
VH: B5 VH with T14P, A100G
VL: NIVLIQSAATLSVTPGDSVSLSCRASQSLSNGLHWYQQKSHESPRLLIKYGSQSISGIPSRFSGSGSGTDFTLSINSVETEDFGMYFCQQSDSWPHTFGSGTKLEIKR
B8: LK-RB2-45 (antibody, human IgG4 S228P, kappa, V domains shown)
VH: B5 VH with T14P, A40T, K46Q, I53V, T74A, T93S, A100G, Y105H
VL: B1 VL with H34N, A51V, V83I, T90N, S93N, Y96L, I106L
B9: LK-RB2-14 (antibody, human IgG4 S228P, kappa, V domains shown)
VH: QVQLKQSGPGLVQPSQSLSITCTVSGFSLTSYGVHWVRQSPGKGLEWLGVIWRGGSTDYNAAFMSRLSITKDNSKSQVFFKMNSLQADDTAIYYCAKNEGDSTVVAWYFDVWGTGTTVTVSS
VL: DIQMTQTTSSLSASLGDRVTISCSASQGISNYLNWFQQKPDGTVKLLIYYTSSLHSGVPSRFSGSGSGTDYSLTISNLEPEDIATYYCQQYSKLPLTFGAGTKLELKR
B10: J19.h1 (antibody, human IgG4 S228P, kappa, V domains shown)
VH: QITLKESGPTLVKPTQTLTLTCTFSGFSLNTYAMGVSWIRQPPGKALEWLASIWWNGNKYNNPSLKSRLTVTKDTSKNQVVLTMTNMDPVDTATYYCAHSRIIRFTDYVMDAWGQGTLVTVSS
VL: DIQMTQSPSSLSTSVGDRVTITCRASEDIYNDLAWYQQKPGKAPKLLIYNANSLHTGVASRFSGSGSGTDFTFTISSLQPEDVATYFCQQYYDYPLTFGQGTKLEIKR
B11: LK-RB2-21 (antibody, human IgG4 S228P, kappa, V domains shown)
VH: EVQLVESGGDLVKPGGSLKLSCAASGFTFSSYGMSWVRQTPDKRLEWVATISSGGSYTYYPDSLKGRFTISRDNAKSTLYLQMSSLKSEDTAKYYCARPYYDYIFYAIDYWGQGTSVTVSS
VL: DIQMNQSPSSLSASLGDTITITCHASQNINVWLSWYQQKPGNIPKLLIYKASNLHTGVPSRFSGSGSGTGFTLTISSLQPEDIATYYCQQGQSYPLTFGGGTKLEIKR
B12: LK-RB2-33 (antibody, human IgG4 S228P, kappa, V domains shown)
VH: EVQLQQSGVELVRPGALVKLSCKASGFNIKDYYMHWVKQRPEQGLEWIGWIDPEKGDTIYGPKFQGKASITADTSSNTAYLQLSSLTSEDTAVYYCSRGPNYGSSYAFAYWGQGTLVTVSA
VL: DVVMTQSHKFMSTSVGDRVTITCKASQDVSNAVAWYQQKPGQSPKLLIYSASYRYTGVPDRFTGSGSGTDFTFTISSMQAEDLAVYYCQQHYSLPWTFGGGTKLEIKR
B13: LK-RB2-41 (antibody, human IgG4 S228P, kappa, V domains shown)
VH: EVQLQLSGPELVKPGASVKMSCKASGYTFTDYNMHWVKQSHGKSLEWIGYINPNNGGTTYNQKFKGKATLTVNKSSSTAYMELRSLTSEDSAVYYCARAPYYGSSYLLAYWGQGTLVTVSA
VL: B12 VL with V2I, T20S, N31T, M78V, V85I, L94I
B14: LK-RB2-40 (antibody, human IgG4 S228P, kappa, V domains shown)
VH: DVQLQESGPGLVKPSQSLSLTCSVTGYSITSGYYWNWIRQFPGNKLEWMAYISYDGSNNYNPSLKNRISITRDTSKNQFFLKLNSVTTEDTATYYCAREEGTAQATLGYFDYWGQGTTLTVSS
VL: DIQMTQSPASLSVSVGETVTITCRASENIYSNLAWYQQKQGKSPQLLVYAATNLADGVPSRFSGSGSGTQYSLKINSLQSEDFGSYYCQHFWDTPFTFGSGTKLEIKR
B15: LK-RB1-16 (antibody, human IgG4 S228P, kappa, V domains shown)
VH: QVQLKESGPGLVAPSQSLSITCTVSGFSLISNAISWVRQPPGKGLEWLGVIWGDGNTIYHSALRSRLTISKDNSKSQVFLKLNSLQIDDTATYYCAKANWDGYYFDYWGQGTTLTVSS
VL: B11 VL with N28S, I29V, N30D, V31F, S34N, Y49S, G70T, G100S
notes: Anti-LILRB1 antibody from mouse hybridoma; parental antibody of LK-RB1-16.h1 to h3
B16: LK-RB1-16.h2 (antibody, human IgG4, kappa, V domains shown)
VH: QVQLQESGPGLVKPSETLSLTCTVSGFSLISNAISWIRQPPGKGLEWLGVIWGDGNTIYHSALRSRLTISKDTSKNQVFLKLSSVTAADTAVYYCAKANWDGYYFDYWGQGTTVTVSS
VL: DIQMTQSPSTLSASVGDRVTITCHASQSVDFWLNWYQQKPGKAPKLLIYKASNLHTGVPSRFSGSGSGTEFTLTISSLQPDDFATYYCQQGQSYPLTFGQGTKLEIKR
notes: Humanized form of LK-RB1-16
B17: LK-RB1-16.h1 (antibody, human IgG4, kappa, V domains shown)
VH: B16 VH with L67V, V78F, F79S
VL: B16 VL
notes: Humanized form of LK-RB1-16

For the first assay, the target named is T1, human LILRB1 expressed on CHOK1 cells (CHOK1-hLILRB1) (human, UniProt Q8NHL6 24-650).
T1 construct: whole, on cells; also called CHOK1-LILRB1
T1 sequence (Q8NHL6 24-650): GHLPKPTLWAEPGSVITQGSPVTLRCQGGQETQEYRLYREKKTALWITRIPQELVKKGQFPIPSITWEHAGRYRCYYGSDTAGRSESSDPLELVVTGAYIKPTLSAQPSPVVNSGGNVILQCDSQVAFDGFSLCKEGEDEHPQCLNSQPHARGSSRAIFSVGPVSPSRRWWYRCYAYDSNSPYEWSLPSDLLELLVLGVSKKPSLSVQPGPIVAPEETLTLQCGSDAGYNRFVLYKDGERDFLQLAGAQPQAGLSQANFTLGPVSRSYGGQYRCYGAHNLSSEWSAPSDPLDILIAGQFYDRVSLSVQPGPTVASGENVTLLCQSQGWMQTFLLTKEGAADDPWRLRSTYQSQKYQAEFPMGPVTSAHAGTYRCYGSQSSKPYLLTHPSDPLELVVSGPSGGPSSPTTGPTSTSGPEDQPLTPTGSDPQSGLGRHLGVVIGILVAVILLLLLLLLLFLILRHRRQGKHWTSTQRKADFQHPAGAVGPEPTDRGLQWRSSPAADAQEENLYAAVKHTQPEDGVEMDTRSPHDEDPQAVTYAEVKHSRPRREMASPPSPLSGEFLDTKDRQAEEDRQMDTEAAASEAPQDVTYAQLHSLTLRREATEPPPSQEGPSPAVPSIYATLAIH
The assay is described as follows: FACS binding to CHOK1-hLILRB1 cells. (In general: Flow cytometry measures light scatter and fluorescence of single cells or particles in a stream.)
In the case of B1, the binding result was “no binding”.

For B2, the EC50 came out at 7.06 nM.

As for B3, the binding result was “no binding”.

On to B4, for which the binding result is “no binding”.

B5: the concentration giving a half-maximal response (EC50) was determined as 45.3 nM.

As for B6, the binding result is “no binding”.

B7: the concentration for a half-maximal effect (EC50) is 65.5 nM. This counts as double-digit nanomolar.

B8 came in with an EC50 of 1.48 nM. This EC50 lies about 44-fold lower than the previous one.

Turning to B9, the binding result was “no binding”.

Consider B10, for which the binding result was “no binding”.

As for B11, the binding result is “no binding”.

As for B12, the binding result is “no binding”.

In the case of B13, the binding result is “no binding”.

As to B14, the binding result is “no binding”.

The target of another assay is T2, human LILRB2 expressed on CHOK1 cells (CHOK1-hLILRB2) (human, UniProt Q8N423 22-597).
T2 construct: whole, on cells; also called CHOK1-LILRB2
T2 sequence (Q8N423 22-597): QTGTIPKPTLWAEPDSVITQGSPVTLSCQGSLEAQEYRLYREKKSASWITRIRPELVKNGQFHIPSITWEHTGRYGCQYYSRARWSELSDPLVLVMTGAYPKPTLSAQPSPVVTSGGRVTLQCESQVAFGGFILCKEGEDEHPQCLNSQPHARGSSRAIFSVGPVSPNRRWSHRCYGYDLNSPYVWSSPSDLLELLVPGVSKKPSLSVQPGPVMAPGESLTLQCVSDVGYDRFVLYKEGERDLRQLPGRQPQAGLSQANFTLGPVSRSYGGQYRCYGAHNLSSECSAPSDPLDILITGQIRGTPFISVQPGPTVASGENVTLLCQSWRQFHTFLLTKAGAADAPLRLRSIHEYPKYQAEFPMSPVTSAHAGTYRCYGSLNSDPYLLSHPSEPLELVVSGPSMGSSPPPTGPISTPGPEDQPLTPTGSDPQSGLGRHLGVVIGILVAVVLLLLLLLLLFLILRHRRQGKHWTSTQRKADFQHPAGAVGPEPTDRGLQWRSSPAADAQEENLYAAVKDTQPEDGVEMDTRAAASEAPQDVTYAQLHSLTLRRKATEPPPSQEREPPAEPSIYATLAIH
The assay is described as follows: FACS binding to CHOK1-hLILRB2 cells.
For the molecule B1, a half-maximal response (EC50) required 0.18 nM.

On to B2, for which the EC50 amounted to 2.34 nM. Compared with the last molecule, the EC50 is about 13-fold higher.

With B3, it took 1.61 nM to reach a half-maximal effect (EC50).

In the case of B4, the half-maximal effective concentration (EC50) amounted to 0.72 nM.

Consider B5, for which it took 0.22 nM to reach a half-maximal effect (EC50).

On to B6, for which the EC50 stood at 0.34 nM.

As for B7, a half-maximal effect (EC50) was put at 0.26 nM.

In the case of B8, the EC50 came out at 0.3 nM.

B9 had an EC50 of 0.29 nM. The EC50 values of the last two molecules are within 1.5-fold of each other.

In the case of B10, it took 0.15 nM to reach a half-maximal effect (EC50). This EC50 is about 1.9-fold lower than that of the molecule before.

Molecule B11 yielded a concentration giving a half-maximal response (EC50) of 2.28 nM.

B12 showed a concentration giving a half-maximal response (EC50) of 0.91 nM. Against the preceding molecule, the EC50 is about 2.5-fold lower.

For the molecule B13, the EC50 was determined as 0.37 nM.

As to B14, a half-maximal response (EC50) required 0.53 nM.

Another assay deals with T3, human LILRB1-his (human, UniProt Q8NHL6 24-458, limits assumed).
T3 construct: Analyte of the Biacore run; not shown: His tag
T3 sequence (Q8NHL6 24-458 limits assumed): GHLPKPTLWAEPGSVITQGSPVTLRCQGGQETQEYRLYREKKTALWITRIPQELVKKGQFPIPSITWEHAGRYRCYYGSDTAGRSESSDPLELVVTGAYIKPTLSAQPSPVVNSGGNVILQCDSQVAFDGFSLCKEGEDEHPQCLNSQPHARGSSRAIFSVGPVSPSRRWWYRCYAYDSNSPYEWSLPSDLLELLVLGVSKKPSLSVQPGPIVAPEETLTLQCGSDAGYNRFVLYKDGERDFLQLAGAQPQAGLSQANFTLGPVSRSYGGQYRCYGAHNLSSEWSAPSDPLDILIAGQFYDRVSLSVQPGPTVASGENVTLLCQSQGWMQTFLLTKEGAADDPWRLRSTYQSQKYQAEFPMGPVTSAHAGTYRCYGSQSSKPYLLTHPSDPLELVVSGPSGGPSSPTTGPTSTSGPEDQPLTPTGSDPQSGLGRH
The assay is described as follows: SPR (Biacore 8K), antibody captured via Fc, LILRB1-his as analyte, 1:1 model. (In general: In SPR one partner is held on a chip, and binding of the other changes the refractive index at the surface.)
The molecule B15 came in with a Kd of 0.194 nM, a koff of 0.000108 s⁻¹ and a kon of 556000 M⁻¹ s⁻¹.

In turn, B16 yielded a dissociation constant Kd of 0.235 nM, an off-rate (koff) of 0.000112 s⁻¹ and a kon of 476000 M⁻¹ s⁻¹.

B17 came in with a Kd of 0.507 nM, a koff of 0.0002 s⁻¹ and a kon of 394000 M⁻¹ s⁻¹.

In the next assay the target is T2, human LILRB2 expressed on CHOK1 cells …. The experiment in a line: cell based RBA, flow cytometry: blocking of HLA-G binding to CHOK1-hLILRB2 cells.
In the case of B1, it took 0.203 nM to reach a half-maximal effect (EC50) and the “Top Inhibition” value is 88.4%.

B2: the concentration giving a half-maximal response (EC50) is 50.3 nM and the “Top Inhibition” value is 18.1%.

On to B3, for which the midpoint of the response, the EC50, lay at 1.71 nM and the “Top Inhibition” value is 65.2%.

Take B4: the concentration for a half-maximal effect (EC50) is 0.506 nM and the “Top Inhibition” value came out at 80.6%.

For B5, the midpoint of the response, the EC50, lay at 0.112 nM and the “Top Inhibition” value turned out to be 71.1%.

For B6, a half-maximal effect (EC50) was put at 0.268 nM and the “Top Inhibition” value is 77.3%.

For the molecule B7, the EC50 was found to be 0.198 nM and the “Top Inhibition” value was 71.2%.

With B8, the half-maximal effective concentration (EC50) came out at 0.0673 nM and the “Top Inhibition” value was found to be 81.6%.

For the molecule B9, the EC50 came to 0.231 nM and the “Top Inhibition” value was 73.8%.

As for B10, the concentration giving a half-maximal response (EC50) was determined as 0.0889 nM and the “Top Inhibition” value is 68.7%.

On to B11, for which the EC50 stood at 1.61 nM and the “Top Inhibition” value was found to be 62.4%.

B12: the response was half-maximal at 1.87 nM (EC50) and the “Top Inhibition” value is 90%.

On to B13, for which the EC50 worked out at 0.157 nM and the “Top Inhibition” value was found to be 80.1%.

As to B14, it took 0.445 nM to reach a half-maximal effect (EC50) and the “Top Inhibition” value came to 79.4%.
